The text below walks through data of paper PMC4382112.

For assay [1], the target named is soluble murine EPCR with a C-terminal myc-His tag (murine) (UniProt Q64695). Kind of assay: ELISA; plate binding assay: soluble murine EPCR (5 μg/ml) captured by immobilised anti-myc monoclonal antibody; murine protein C variants 0 to 1200 nM in TBS-1% BSA, 5mM CaCl2, 0.6mM MgCl2, 2 hours at 37°C with shaking; detected with sheep anti-murine protein C; one-site fit, apparent KD (KD(app)); n = 3. For orientation: ELISA stands for enzyme-linked immunosorbent assay.
UniProt Q64695, sequence (Q64695 18-214): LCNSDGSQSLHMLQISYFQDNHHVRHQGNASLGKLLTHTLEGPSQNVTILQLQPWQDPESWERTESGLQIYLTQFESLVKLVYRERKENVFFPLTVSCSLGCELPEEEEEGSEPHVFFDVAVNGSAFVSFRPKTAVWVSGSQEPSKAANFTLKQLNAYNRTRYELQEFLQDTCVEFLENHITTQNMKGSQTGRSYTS

In the case of “murine protein C(S360A) (natural protein)”, in assay [1], the Kd was 129 nM.
With “plasma-derived murine protein C (natural protein)”, the Kd in assay [1] was 94.3 nM.
Same read-out and setting: the figure for “recombinant murine wt protein C (natural protein)” is 112 nM.

B1: human recombinant protein C inhibitor (PCI) (natural protein)
chain: EMKKRVEDLHVGATVAPSSRRDFTFDLYRALASAAPSQSIFFSPVSISMSLAMLSLGAGSSTKMQILEGLGLNLQKSSEKELHRGFQQLLQELNQPRDGFQLSLGNALFTDLVVDLQDTFVSAMKTLYLADTFPTNFRDSAGAMKQINDYVAKQTKGKIVDLLKNLDSNAVVIMVNYIFFKAKWETSFNHKGTQEQDFYVTSETVVRVPMMSREDQYHYLLDRNLSCRVVGVPYQGNATALFILPSEGKMQQVENGLSEKTLRKWLKMFKKRQLELYLPKFSIEGSYQLEKVLPSLGISNVFTSHADLSGISNHSNIQVSEMVHKAVVEVDESGTRAAAATGTIFTFRSARLNSQRLVFNRPFLMFIVDNNILFLGKVNRP
As to B1, the inactivation of 20nM human APC variant by 200nM PCI at 37°C, residual APC activity on S-2366 over 0–20 minutes; half-life with human APC(5A) (human) is 4 min.
